Measurements from US9018171B2, “Uses of an immunomodulatory protein (GMI) from Ganoderma microsporum” (Mycomagic Biotechnology Co., Ltd., priority 2010, dated 2015).
Entries after “also recorded” stand apart in the source; their conditions may differ.

Assays:
HCT-15 = experiment: NCI60 in vitro screening, Colon Cancer; assay type: cell-based
HOP-92 = assay type: cell-based; conditions: HOP-92, one dose
MCF7 = experiment: NCI60 in vitro screening, Breast Cancer; assay type: cell-based
NCI60 tumour cell lines = experiment: NCI60 in vitro screening, one dose, whole panel; assay type: cell-based; conditions: mean over all cell lines
SN12C = experiment: NCI60 in vitro screening, Renal Cancer; assay type: cell-based
HS 578T = experiment: NCI60 in vitro screening, Breast Cancer; assay type: cell-based
DU-145 = experiment: NCI60 in vitro screening, Prostate Cancer; assay type: cell-based
UACC-257 = experiment: NCI60 in vitro screening, Melanoma; assay type: cell-based
786-0 = experiment: NCI60 in vitro screening, Renal Cancer; assay type: cell-based
A549 cells = experiment: Cell invasion assay (modified Boyden chamber, Matrigel); assay type: cell-based, human
Method: A549 cells (2×10^4 cells/well) were seeded onto the upper chamber of membrane and treated with different concentrations of GMI (4, 8, 16 μg/ml) for 2 hours. The bottom chamber was filled with DMEM supplemented with EGF 10 ng/ml or 100 ng/ml. After about 24 h, the invasive A549 cells passed through the membrane and were quantified by counting the cells that migrated onto the membrane. Cells were fixed, stained, and counted as described in the text. The data represent mean±SD.
Cell invasion assays were performed using modified Boyden chambers 6.5 mm in diameter, with […] porous (8 μm) polycarbonate membrane separating the two chambers (Transwell; Costar, Cambridge, Mass.). The membrane of the upper chamber was coated with Matrigel (0.3 mg/mL; BD Biosciences Discovery Labware) for 3 hours. Condition medium was prepared from A549 cells which were pretreated with or without GMI, LY294002 (50 μM), or AG1478 (2 μM) for 8 h. To the medium of the bottom chamber was added 10% FBS-DMEM containing EGF (10 ng/ml) or condition medium. Cells were trypsinized, centrifuged, and resuspended at 4×10^5 cells/mL in 0.5% FBS-DMEM. After 24 h incubation, the cells on the upper well and the membranes coated with Matrigel were fixed with methanol, and stained with 20% Giemsa solution (Merck). The cells that were attached to the lower surface of the polycarbonate filter were counted under a light microscope (magnification, X 100). The experiments were performed in triplicate.

M14 = experiment: NCI60 in vitro screening, Melanoma; assay type: cell-based
COLO 205 = experiment: NCI60 in vitro screening, Colon Cancer; assay type: cell-based
HT29 = experiment: NCI60 in vitro screening, Colon Cancer; assay type: cell-based
HCT-116 = experiment: NCI60 in vitro screening, Colon Cancer; assay type: cell-based
OVCAR-8 = experiment: NCI60 in vitro screening, Ovarian Cancer; assay type: cell-based
RPMI-8226 = experiment: NCI60 in vitro screening, Leukemia; assay type: cell-based

B1: GMI: immunomodulatory protein from Ganoderma microsporum, amino acid sequence SEQ ID NO: 3, manufactured by Mycomagic Biotechnology Co., Ltd. (protein, listed as Ganoderma microsporum)
chain: MSDTALIFTLAWNVKQLAFDYTPNWGRGRPSSFIDTVTFPTVLTDKAYTYRVVVSGKDLGVRPSYAVESDGSQKINFLEYNSGYGIADTNTIQVYVIDPDTGNNFIVAQWN
In the case of B1, the TGI (HCT-15; HCT-15) is reported as 5.26E1, the “Percent Growth” value (HCT-15; HCT-15, Log10 Concentration 0.1) is reported as 94% and the “Percent Growth” value (HCT-15; HCT-15, Log10 Concentration 1.1) is reported as 52%. For the same molecule, the “Percent Growth” value (HCT-15; HCT-15, Log10 Concentration 2.1) was −31%, the “Percent Growth” value (HCT-15; HCT-15, Log10 Concentration −0.9) was 97% and the “Percent Growth” value (HCT-15; HCT-15, Log10 Concentration −1.9) was 97%. The “Growth Percent” value (HCT-15; HCT-15, one dose) was 33.64%, the GI50 (HCT-15; HCT-15, in µg/mL) was 1.31E1 and the “Growth Percent” value (HOP-92) was 22.29%. The TGI (MCF7; MCF7) was >1.25E2, the “Percent Growth” value (MCF7; MCF7, Log10 Concentration 0.1) was 93% and the “Percent Growth” value (MCF7; MCF7, Log10 Concentration 1.1) was 49%. The “Percent Growth” value (MCF7; MCF7, Log10 Concentration 2.1) was 23%, the “Percent Growth” value (MCF7; MCF7, Log10 Concentration −0.9) was 104% and the “Percent Growth” value (MCF7; MCF7, Log10 Concentration −1.9) was 100%. The “Growth Percent” value (MCF7; MCF7, one dose) was 42.68%, the GI50 (MCF7; MCF7, in µg/mL) was 1.15E1 and the “Growth Percent, Mean” value (NCI60 tumour cell lines) was 64.66%. For the same molecule, the TGI (SN12C) was >1.25E2, the “Percent Growth” value (SN12C; Log10 Concentration 0.1) was 99% and the “Percent Growth” value (SN12C; Log10 Concentration 1.1) was 81%. For the same molecule, the “Percent Growth” value (SN12C; Log10 Concentration 2.1) was 30%, the “Percent Growth” value (SN12C; Log10 Concentration −0.9) was 104% and the “Percent Growth” value (SN12C; Log10 Concentration −1.9) was 102%. The GI50 (SN12C; in µg/mL) was 5.05E1, the “Growth Percent” value (SN12C; one dose) was 74.30% and the TGI (HS 578T) was >1.25E2. The “Percent Growth” value (HS 578T; Log10 Concentration 0.1) was 108%, the “Percent Growth” value (HS 578T; Log10 Concentration 1.1) was 96% and the “Percent Growth” value (HS 578T; Log10 Concentration 2.1) was 64%. The “Percent Growth” value (HS 578T; Log10 Concentration −0.9) was 106%, the “Percent Growth” value (HS 578T; Log10 Concentration −1.9) was 104% and the TGI (DU-145; DU-145) was >1.25E2. The “Percent Growth” value (DU-145; DU-145, Log10 Concentration 0.1) was 109%, the “Percent Growth” value (DU-145; DU-145, Log10 Concentration 1.1) was 71% and the “Percent Growth” value (DU-145; DU-145, Log10 Concentration 2.1) was 9%. For the same molecule, the “Percent Growth” value (DU-145; DU-145, Log10 Concentration −0.9) was 99%, the “Percent Growth” value (DU-145; DU-145, Log10 Concentration −1.9) was 101% and the “Growth Percent” value (DU-145; DU-145, one dose) was 39.22%. The GI50 (DU-145; DU-145, in µg/mL) was 2.76E1, the TGI (UACC-257; UACC-257) was >1.25E2 and the “Percent Growth” value (UACC-257; UACC-257, Log10 Concentration 0.1) was 98%. For the same molecule, the “Percent Growth” value (UACC-257; UACC-257, Log10 Concentration 1.1) was 37%, the “Percent Growth” value (UACC-257; UACC-257, Log10 Concentration 2.1) was 52% and the “Percent Growth” value (UACC-257; UACC-257, Log10 Concentration −0.9) was 99%. For the same molecule, the “Percent Growth” value (UACC-257; UACC-257, Log10 Concentration −1.9) was 103%, the “Growth Percent” value (UACC-257; UACC-257, one dose) was 89.25% and the TGI (786-0; 786-0) was >1.25E2. The “Percent Growth” value (786-0; 786-0, Log10 Concentration 0.1) was 111%, the “Percent Growth” value (786-0; 786-0, Log10 Concentration 1.1) was 73% and the “Percent Growth” value (786-0; 786-0, Log10 Concentration 2.1) was 4%. For the same molecule, the “Percent Growth” value (786-0; 786-0, Log10 Concentration −0.9) was 99%, the “Percent Growth” value (786-0; 786-0, Log10 Concentration −1.9) was 100% and the “Growth Percent” value (786-0; 786-0, one dose) was 74.75%. For the same molecule, the GI50 (786-0; 786-0, in µg/mL) was 2.70E1, the “EGF-promoted invasion reduced to” value (A549 cells; GMI 4 μg/ml, EGF) was 52% and the invaded cell number (A549 cells; GMI 4 μg/ml, EGF, decreased from 2515±212) was 1306±30. The “invasion reduced to” value (A549 cells; GMI 4 μg/ml, without EGF) was 22%, the invaded cell number (A549 cells; GMI 4 μg/ml, without EGF, decreased from 1895±37) was 419±6 and the “EGF-promoted invasion reduced to” value (A549 cells; GMI 16 μg/ml, EGF) was “less than 5%”. The invaded cell number (A549 cells; GMI 16 μg/ml, EGF, decreased from 2515±212) was 121±39, the “invasion reduced to” value (A549 cells; GMI 16 μg/ml, without EGF) was “less than 9%” and the invaded cell number (A549 cells; GMI 16 μg/ml, without EGF, decreased from 1895±37) was 61±3. For the same molecule, the “EGF-promoted invasion of A549 cells” value (A549 cells; increasing concentrations of GMI, EGF) was “significantly inhibits; also recorded: dose-dependent decrease in EGF-promoted invasion”, the “invasion of A549 cells” value (A549 cells; increasing concentrations of GMI, without EGF) was “dose-dependent decrease in invasion” and the TGI (M14; M14) was >1.25E2. The “Percent Growth” value (M14; M14, Log10 Concentration 0.1) was 106%, the “Percent Growth” value (M14; M14, Log10 Concentration 1.1) was 76% and the “Percent Growth” value (M14; M14, Log10 Concentration 2.1) was 1%. For the same molecule, the “Percent Growth” value (M14; M14, Log10 Concentration −0.9) was 96%, the “Percent Growth” value (M14; M14, Log10 Concentration −1.9) was 98% and the “Growth Percent” value (M14; M14, one dose) was 94.87%. For the same molecule, the GI50 (M14; M14, in µg/mL) was 2.78E1, the TGI (COLO 205; COLO 205) was >1.25E2 and the “Percent Growth” value (COLO 205; COLO 205, Log10 Concentration 0.1) was 100%. The “Percent Growth” value (COLO 205; COLO 205, Log10 Concentration 1.1) was 95%, the “Percent Growth” value (COLO 205; COLO 205, Log10 Concentration 2.1) was 95% and the “Percent Growth” value (COLO 205; COLO 205, Log10 Concentration −0.9) was 98%. The “Percent Growth” value (COLO 205; COLO 205, Log10 Concentration −1.9) was 95%, the “Growth Percent” value (COLO 205; COLO 205, one dose) was 105.56% and the TGI (HT29; HT29) was >1.25E2. For the same molecule, the “Percent Growth” value (HT29; HT29, Log10 Concentration 0.1) was 98%, the “Percent Growth” value (HT29; HT29, Log10 Concentration 1.1) was 57% and the “Percent Growth” value (HT29; HT29, Log10 Concentration 2.1) was 22%. The “Percent Growth” value (HT29; HT29, Log10 Concentration −0.9) was 99%, the “Percent Growth” value (HT29; HT29, Log10 Concentration −1.9) was 100% and the “Growth Percent” value (HT29; HT29, one dose) was 28.36%. The GI50 (HT29; HT29, in µg/mL) was 1.95E1, the TGI (HCT-116; HCT-116) was >1.25E2 and the “Percent Growth” value (HCT-116; HCT-116, Log10 Concentration 0.1) was 101%. For the same molecule, the “Percent Growth” value (HCT-116; HCT-116, Log10 Concentration 1.1) was 103%, the “Percent Growth” value (HCT-116; HCT-116, Log10 Concentration 2.1) was 104% and the “Percent Growth” value (HCT-116; HCT-116, Log10 Concentration −0.9) was 105%. For the same molecule, the “Percent Growth” value (HCT-116; HCT-116, Log10 Concentration −1.9) was 98%, the “Growth Percent” value (HCT-116; HCT-116, one dose) was 101.77% and the TGI (OVCAR-8; OVCAR-8) was >1.25E2. The “Percent Growth” value (OVCAR-8; OVCAR-8, Log10 Concentration 0.1) was 99%, the “Percent Growth” value (OVCAR-8; OVCAR-8, Log10 Concentration 1.1) was 91% and the “Percent Growth” value (OVCAR-8; OVCAR-8, Log10 Concentration 2.1) was 31%. The “Percent Growth” value (OVCAR-8; OVCAR-8, Log10 Concentration −0.9) was 95%, the “Percent Growth” value (OVCAR-8; OVCAR-8, Log10 Concentration −1.9) was 98% and the “Growth Percent” value (OVCAR-8; OVCAR-8, one dose) was 76.68%. For the same molecule, the GI50 (OVCAR-8; OVCAR-8, in µg/mL) was 6.00E1, the TGI (RPMI-8226; RPMI-8226) was >1.25E2 and the “Percent Growth” value (RPMI-8226; RPMI-8226, Log10 Concentration 0.1) was 105%. For the same molecule, the “Percent Growth” value (RPMI-8226; RPMI-8226, Log10 Concentration 1.1) was 100%, the “Percent Growth” value (RPMI-8226; RPMI-8226, Log10 Concentration 2.1) was 72% and the “Percent Growth” value (RPMI-8226; RPMI-8226, Log10 Concentration −0.9) was 102%. The “Percent Growth” value (RPMI-8226; RPMI-8226, Log10 Concentration −1.9) was 105% and the “Growth Percent” value (RPMI-8226; RPMI-8226, one dose) was 96.01%.
